± gives the uncertainty stated by the source.
B1: library; numbered along this chain (parent)
chain: MEVVDPQQLGMFTEGELMSVGMDTFIHRIDSTEVIYQPRRKRAKLIGKYLMGDLLGEGSYGKVKEVLDSETLCRRAVKILKKKKLRRIPNGEANVKKEIQLLRRLRHKNVIQLVDVLYNEEKQKMYMVMEYCVCGMQEMLDSVPEKRFPVCQAHGYFCQLIDGLEYLHSQGIVHKDIKPGNLLLTTGGTLKISDLGVAEALHPFAADDTCRTSQGSPAFQPPEIANGLDTFSGFKVDIWSAGVTLYNITTGLYPFEGDNIYKLFENIGKGSYAIPGDCGPPLSDLLKGMLEYEPAKRFSIRQIRQHSWFRKKHPPAEAPVPIPPSPDTKDRWRSMTVVPYLEDLHGADEDEDLFDIEDDIIYTQDFTVPGQVPEEEASHNGQRRGLPKAVCMNGTEAAQLSTKSRAEGRAPNPARKACSASSKIRRLSACKQQ

Variants of: B1
Assay: STK11 functional score (HeLa growth suppression), rescaled enrichment; synonymous median = 1, nonsense median = 0 (normalised score)
Conditions: with HeLa; variant type: missense
In short: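 Functional scores are post/pre-selection log ratios corrected to wild type, rescaled to synonymous and nonsense medians, merged over codons and replicate transfections, and given bootstrapped error. They come from POPCode libraries of codon-optimised STK11 integrated by Bxb1 at an AAVS1 landing pad in HeLa, three regions each transfected three times, with BFP-negative, mCherry-positive integrants sorted by FACS and tiled gDNA amplicons sequenced on NextSeq.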

MEVVDPQQLGMFTEGELMSVGMDTFIHRIDSTEVIYQPRRKRAKLIGKYLMGDLLGEGSYGKVKEVLDSETLCRRAVKILKKKKLRRIPNGEANVKKEIQLLRRLRHKNVIQLVDVLYNEEKQKMYMVMEYCVCGMQEMLDSVPEKRFPVCQAHGYFCQLIDGLEYLHSQGIVHKDIKPGNLLLTTGGTLKISDLGVAEALHPFAADDTCRTSQGSPAFQPPEIANGLDTFSGFKVDIWSAGVTLYNITTGLYPFEGDNIYKLFENIGKGSYAIPGDCGPPLSDLLKGMLEYEPAKRFSIRQIRQHSWFRKKHPPAEAPVPIPPSPDTKDRWRSMTVVPYLEDLHGADEDEDLFDIEDDIIYTGDFTVPGQVPEEEASHNGQRRGLPKAVCMNGTEAAQLSTKSRAEGRAPNPARKACSASSKIRRLSACKQQ [Q364G] and MEVVDPQQLGMFTEGELMSVGMDTFIHRIDSTEVIYQPRRKRAKLIGKYLMGDLLGEGSYGKVKEVLDSETLCRRAVKILKKKKLRRIPNGEANVKKEIQLLRRLRHKNVIQLVDVLYNEEKQKMYMVMEYCVCGMQEMLDSVPEKRFPVCQAHGYFCQLIDGLEYLHSQGIVHKDIKPGNLLLTTGGTLKISDLGVAEALHPFAADDTCRTSQGSPAFQPPEIANGLDTFSGFKVDIWSAGVTLYNITTGLYPFEGDNIYKLFENIGKGSYAIPGDCGPPLSDLLKGMLEYEPAKRFSIRQIRQHSWFRKKHPPAEAPVPIPPSPDTKDRWRSMTVVPYLEDLHGADEDEDLFDIEDDIIYTEDFTVPGQVPEEEASHNGQRRGLPKAVCMNGTEAAQLSTKSRAEGRAPNPARKACSASSKIRRLSACKQQ [Q364E] are within error of each other in STK11 functional score: 0.7 ± 0.2 for the first, 0.253 ± 0.34 for the second.

MEVVDPQQLGMFTEGELMSVGMDTFIHRIDSTEVIYQPRRKRAKLIGKYLMGDLLGEGSYGKVKEVLDSETLCRRAVKILKKKKLRRIPNGEANVKKEIQLLRRLRHKNVIQLVDVLYNEEKQKMYMVMEYCVCGMQEMLDSVPEKRFPVCQAHGYFCQLIDGLEYLHSQGIVHKDIKPGNLLLTTGGTLKISDLGVAEALHPFAADDTCRTSQGSPAFQPPEIANGLDTFSGFKVDIWSAGVTLYNITTGLYPFEGDNIYKLFENIGKGSYAIPGDCGPPLSDLLKGMLEYEPAKRFSIRQIRQHSWFRKKHPPAEAPVPIPPSPDTKDRWRSMTVVPYLEDLHGADEDEDLFDIEDDIIYTSDFTVPGQVPEEEASHNGQRRGLPKAVCMNGTEAAQLSTKSRAEGRAPNPARKACSASSKIRRLSACKQQ [Q364S] and MEVVDPQQLGMFTEGELMSVGMDTFIHRIDSTEVIYQPRRKRAKLIGKYLMGDLLGEGSYGKVKEVLDSETLCRRAVKILKKKKLRRIPNGEANVKKEIQLLRRLRHKNVIQLVDVLYNEEKQKMYMVMEYCVCGMQEMLDSVPEKRFPVCQAHGYFCQLIDGLEYLHSQGIVHKDIKPGNLLLTTGGTLKISDLGVAEALHPFAADDTCRTSQGSPAFQPPEIANGLDTFSGFKVDIWSAGVTLYNITTGLYPFEGDNIYKLFENIGKGSYAIPGDCGPPLSDLLKGMLEYEPAKRFSIRQIRQHSWFRKKHPPAEAPVPIPPSPDTKDRWRSMTVVPYLEDLHGADEDEDLFDIEDDIIYTCDFTVPGQVPEEEASHNGQRRGLPKAVCMNGTEAAQLSTKSRAEGRAPNPARKACSASSKIRRLSACKQQ [Q364C] are within error of each other in STK11 functional score: 1.4 ± 0.19 for the first, 1.28 ± 0.32 for the second.

MEVVDPQQLGMFTEGELMSVGMDTFIHRIDSTEVIYQPRRKRAKLIGKYLMGDLLGEGSYGKVKEVLDSETLCRRAVKILKKKKLRRIPNGEANVKKEIQLLRRLRHKNVIQLVDVLYNEEKQKMYMVMEYCVCGMQEMLDSVPEKRFPVCQAHGYFCQLIDGLEYLHSQGIVHKDIKPGNLLLTTGGTLKISDLGVAEALHPFAADDTCRTSQGSPAFQPPEIANGLDTFSGFKVDIWSAGVTLYNITTGLYPFEGDNIYKLFENIGKGSYAIPGDCGPPLSDLLKGMLEYEPAKRFSIRQIRQHSWFRKKHPPAEAPVPIPPSPDTKDRWRSMTVVPYLEDLHGADEDEDLFDIEDDIIYTADFTVPGQVPEEEASHNGQRRGLPKAVCMNGTEAAQLSTKSRAEGRAPNPARKACSASSKIRRLSACKQQ [Q364A] and MEVVDPQQLGMFTEGELMSVGMDTFIHRIDSTEVIYQPRRKRAKLIGKYLMGDLLGEGSYGKVKEVLDSETLCRRAVKILKKKKLRRIPNGEANVKKEIQLLRRLRHKNVIQLVDVLYNEEKQKMYMVMEYCVCGMQEMLDSVPEKRFPVCQAHGYFCQLIDGLEYLHSQGIVHKDIKPGNLLLTTGGTLKISDLGVAEALHPFAADDTCRTSQGSPAFQPPEIANGLDTFSGFKVDIWSAGVTLYNITTGLYPFEGDNIYKLFENIGKGSYAIPGDCGPPLSDLLKGMLEYEPAKRFSIRQIRQHSWFRKKHPPAEAPVPIPPSPDTKDRWRSMTVVPYLEDLHGADEDEDLFDIEDDIIYTTDFTVPGQVPEEEASHNGQRRGLPKAVCMNGTEAAQLSTKSRAEGRAPNPARKACSASSKIRRLSACKQQ [Q364T] are within error of each other in STK11 functional score: 1.53 ± 0.15 for the first, 1.46 ± 0.14 for the second.

MEVVDPQQLGMFTEGELMSVGMDTFIHRIDSTEVIYQPRRKRAKLIGKYLMGDLLGEGSYGKVKEVLDSETLCRRAVKILKKKKLRRIPNGEANVKKEIQLLRRLRHKNVIQLVDVLYNEEKQKMYMVMEYCVCGMQEMLDSVPEKRFPVCQAHGYFCQLIDGLEYLHSQGIVHKDIKPGNLLLTTGGTLKISDLGVAEALHPFAADDTCRTSQGSPAFQPPEIANGLDTFSGFKVDIWSAGVTLYNITTGLYPFEGDNIYKLFENIGKGSYAIPGDCGPPLSDLLKGMLEYEPAKRFSIRQIRQHSWFRKKHPPAEAPVPIPPSPDTKDRWRSMTVVPYLEDLHGADEDEDLFDIEDDIIYTIDFTVPGQVPEEEASHNGQRRGLPKAVCMNGTEAAQLSTKSRAEGRAPNPARKACSASSKIRRLSACKQQ [Q364I] and MEVVDPQQLGMFTEGELMSVGMDTFIHRIDSTEVIYQPRRKRAKLIGKYLMGDLLGEGSYGKVKEVLDSETLCRRAVKILKKKKLRRIPNGEANVKKEIQLLRRLRHKNVIQLVDVLYNEEKQKMYMVMEYCVCGMQEMLDSVPEKRFPVCQAHGYFCQLIDGLEYLHSQGIVHKDIKPGNLLLTTGGTLKISDLGVAEALHPFAADDTCRTSQGSPAFQPPEIANGLDTFSGFKVDIWSAGVTLYNITTGLYPFEGDNIYKLFENIGKGSYAIPGDCGPPLSDLLKGMLEYEPAKRFSIRQIRQHSWFRKKHPPAEAPVPIPPSPDTKDRWRSMTVVPYLEDLHGADEDEDLFDIEDDIIYTLDFTVPGQVPEEEASHNGQRRGLPKAVCMNGTEAAQLSTKSRAEGRAPNPARKACSASSKIRRLSACKQQ [Q364L] are within error of each other in STK11 functional score: 1.26 ± 0.47 for the first, 1.33 ± 0.24 for the second.

MEVVDPQQLGMFTEGELMSVGMDTFIHRIDSTEVIYQPRRKRAKLIGKYLMGDLLGEGSYGKVKEVLDSETLCRRAVKILKKKKLRRIPNGEANVKKEIQLLRRLRHKNVIQLVDVLYNEEKQKMYMVMEYCVCGMQEMLDSVPEKRFPVCQAHGYFCQLIDGLEYLHSQGIVHKDIKPGNLLLTTGGTLKISDLGVAEALHPFAADDTCRTSQGSPAFQPPEIANGLDTFSGFKVDIWSAGVTLYNITTGLYPFEGDNIYKLFENIGKGSYAIPGDCGPPLSDLLKGMLEYEPAKRFSIRQIRQHSWFRKKHPPAEAPVPIPPSPDTKDRWRSMTVVPYLEDLHGADEDEDLFDIEDDIIYTRDFTVPGQVPEEEASHNGQRRGLPKAVCMNGTEAAQLSTKSRAEGRAPNPARKACSASSKIRRLSACKQQ [Q364R] and MEVVDPQQLGMFTEGELMSVGMDTFIHRIDSTEVIYQPRRKRAKLIGKYLMGDLLGEGSYGKVKEVLDSETLCRRAVKILKKKKLRRIPNGEANVKKEIQLLRRLRHKNVIQLVDVLYNEEKQKMYMVMEYCVCGMQEMLDSVPEKRFPVCQAHGYFCQLIDGLEYLHSQGIVHKDIKPGNLLLTTGGTLKISDLGVAEALHPFAADDTCRTSQGSPAFQPPEIANGLDTFSGFKVDIWSAGVTLYNITTGLYPFEGDNIYKLFENIGKGSYAIPGDCGPPLSDLLKGMLEYEPAKRFSIRQIRQHSWFRKKHPPAEAPVPIPPSPDTKDRWRSMTVVPYLEDLHGADEDEDLFDIEDDIIYTDDFTVPGQVPEEEASHNGQRRGLPKAVCMNGTEAAQLSTKSRAEGRAPNPARKACSASSKIRRLSACKQQ [Q364D] are within error of each other in STK11 functional score: 1.1 ± 0.27 for the first, 0.845 ± 0.44 for the second.

MEVVDPQQLGMFTEGELMSVGMDTFIHRIDSTEVIYQPRRKRAKLIGKYLMGDLLGEGSYGKVKEVLDSETLCRRAVKILKKKKLRRIPNGEANVKKEIQLLRRLRHKNVIQLVDVLYNEEKQKMYMVMEYCVCGMQEMLDSVPEKRFPVCQAHGYFCQLIDGLEYLHSQGIVHKDIKPGNLLLTTGGTLKISDLGVAEALHPFAADDTCRTSQGSPAFQPPEIANGLDTFSGFKVDIWSAGVTLYNITTGLYPFEGDNIYKLFENIGKGSYAIPGDCGPPLSDLLKGMLEYEPAKRFSIRQIRQHSWFRKKHPPAEAPVPIPPSPDTKDRWRSMTVVPYLEDLHGADEDEDLFDIEDDIIYTMDFTVPGQVPEEEASHNGQRRGLPKAVCMNGTEAAQLSTKSRAEGRAPNPARKACSASSKIRRLSACKQQ [Q364M] and MEVVDPQQLGMFTEGELMSVGMDTFIHRIDSTEVIYQPRRKRAKLIGKYLMGDLLGEGSYGKVKEVLDSETLCRRAVKILKKKKLRRIPNGEANVKKEIQLLRRLRHKNVIQLVDVLYNEEKQKMYMVMEYCVCGMQEMLDSVPEKRFPVCQAHGYFCQLIDGLEYLHSQGIVHKDIKPGNLLLTTGGTLKISDLGVAEALHPFAADDTCRTSQGSPAFQPPEIANGLDTFSGFKVDIWSAGVTLYNITTGLYPFEGDNIYKLFENIGKGSYAIPGDCGPPLSDLLKGMLEYEPAKRFSIRQIRQHSWFRKKHPPAEAPVPIPPSPDTKDRWRSMTVVPYLEDLHGADEDEDLFDIEDDIIYTHDFTVPGQVPEEEASHNGQRRGLPKAVCMNGTEAAQLSTKSRAEGRAPNPARKACSASSKIRRLSACKQQ [Q364H] are within error of each other in STK11 functional score: 0.768 ± 0.13 for the first, 0.685 ± 0.66 for the second.

MEVVDPQQLGMFTEGELMSVGMDTFIHRIDSTEVIYQPRRKRAKLIGKYLMGDLLGEGSYGKVKEVLDSETLCRRAVKILKKKKLRRIPNGEANVKKEIQLLRRLRHKNVIQLVDVLYNEEKQKMYMVMEYCVCGMQEMLDSVPEKRFPVCQAHGYFCQLIDGLEYLHSQGIVHKDIKPGNLLLTTGGTLKISDLGVAEALHPFAADDTCRTSQGSPAFQPPEIANGLDTFSGFKVDIWSAGVTLYNITTGLYPFEGDNIYKLFENIGKGSYAIPGDCGPPLSDLLKGMLEYEPAKRFSIRQIRQHSWFRKKHPPAEAPVPIPPSPDTKDRWRSMTVVPYLEDLHGADEDEDLFDIEDDIIYTPDFTVPGQVPEEEASHNGQRRGLPKAVCMNGTEAAQLSTKSRAEGRAPNPARKACSASSKIRRLSACKQQ [Q364P] and MEVVDPQQLGMFTEGELMSVGMDTFIHRIDSTEVIYQPRRKRAKLIGKYLMGDLLGEGSYGKVKEVLDSETLCRRAVKILKKKKLRRIPNGEANVKKEIQLLRRLRHKNVIQLVDVLYNEEKQKMYMVMEYCVCGMQEMLDSVPEKRFPVCQAHGYFCQLIDGLEYLHSQGIVHKDIKPGNLLLTTGGTLKISDLGVAEALHPFAADDTCRTSQGSPAFQPPEIANGLDTFSGFKVDIWSAGVTLYNITTGLYPFEGDNIYKLFENIGKGSYAIPGDCGPPLSDLLKGMLEYEPAKRFSIRQIRQHSWFRKKHPPAEAPVPIPPSPDTKDRWRSMTVVPYLEDLHGADEDEDLFDIEDDIIYTFDFTVPGQVPEEEASHNGQRRGLPKAVCMNGTEAAQLSTKSRAEGRAPNPARKACSASSKIRRLSACKQQ [Q364F] are within error of each other in STK11 functional score: 1.4 ± 0.27 for the first, 1.28 ± 0.27 for the second.

From the supplement of paper PMC12338614
